# Test results published in paper doi:10.1101/2022.01.19.476892 (bioRxiv, 2022).
# B1: antigen-binding fragment (Fab) of VacW-209 (Fab, V domains shown)
# VH: QVQLVESGGGVVQPGRSLRLSCAASGFTFSSIAMHWVRQAPGKGLEWVAVMSFDGSIKYYGDSVKGRFTISRDNSKSTLYLQMNSLRAEDTAVYYCARGVQGYYDRSGYYNLDYNYGMDVWGQGTTVTVSS
# VL: QSVLTQPPSVSGAPGQRVTISCTGSSSNIGAGYDVHWYQQLPGTAPKLLIYGNSNRPSGVPDRFSGSKSGTSASLAITGLQAEDEADYYCQSYDSSLSGWVFGGGTKLTVL
# Target: SARS-CoV S-6P protein (SARS-CoV; strain of S-6P  …, UniProt P59594, stabilised)
# Assay: cryo-EM structure
binder,measurement,value
B1,stoichiometry N,3 Fabs per spike trimer
